B1: NPM1_(188), the NTD and the acidic regions of the IDR of NPM1 (domain or fragment, human, UniProt P06748 1-188, looked up)
chain: MEDSMDMDMSPLRPQNYLFGCELKADKDYHFKVDNDENEHQLSLRTVSLGAGAKDELHIVEAEAMNYEGSPIKVTLATLKMSVQPTVSLGGFEITPPVVLRLKCGSGPVHISGQHLVAVEEDAESEDEEEEDVKLLSISGKRSAPGGGSKVPQKKVKLAADEDDDDDDEEDDDEDDDDDDFDDEEAEE
notes: Nucleophosmin 1, human, NTD and acidic tracts A1-3, C-terminally truncated at residue 188; exact construct and tags are in the supplementary methods; Mostly pentameric; also called NPM188; source: produced by the authors
B2: rpL5_(21-37), residues 21 to 37 of ribosomal protein L5 (peptide, UniProt P46777 21-37, looked up)
peptide: RRRREGKTDYYARKRLV
notes: ribosomal protein L5 (rpL5), residues 21 to 37, with two basic motifs; printed mass 2.2 kDa; also called rpL5 peptide; rpL5_(12-37)
B3: NPM1AML, NPM1 variant with an AML mutation at the C-terminus (natural protein, human, UniProt P06748 1-294, looked up)
chain: MEDSMDMDMSPLRPQNYLFGCELKADKDYHFKVDNDENEHQLSLRTVSLGAGAKDELHIVEAEAMNYEGSPIKVTLATLKMSVQPTVSLGGFEITPPVVLRLKCGSGPVHISGQHLVAVEEDAESEDEEEEDVKLLSISGKRSAPGGGSKVPQKKVKLAADEDDDDDDEEDDDEDDDDDDFDDEEAEEKAPVKKSIRDTPAKNAQKSNQNGKDSKPSSTPRSKGQESFKKQEKTPKTPKGPSSVEDIKAKMQASIEKGGSLPKVEAKFINYVKNCFRMTDQEAIQDLCLAVEEVSLRK
notes: Compared directly with FL NPM1, so most likely the whole protein with the changed C-terminus; also called AML variant; source: purified by the authors
B4: NPM1_(120), the N-terminal pentamerization domain (NTD) of NPM1 (domain or fragment, human, UniProt P06748 1-120, looked up)
chain: MEDSMDMDMSPLRPQNYLFGCELKADKDYHFKVDNDENEHQLSLRTVSLGAGAKDELHIVEAEAMNYEGSPIKVTLATLKMSVQPTVSLGGFEITPPVVLRLKCGSGPVHISGQHLVAVE
notes: Nucleophosmin 1, human, NTD with the A1 tract, residues 1 to 120; exact construct and tags are in the supplementary methods; also called NPM120; isolated NTD; source: produced by the authors

The target of data set [1] is NPM1_(ΔIDR), NPM1 variant in which NTD and CTD are linked without the IDR (human) (UniProt P06748). The data set can be described thus: native MS; each NPM1 variant alone; nESI with collision-induced dissociation, collision voltages 25 to 75 V.
Data set [2] concerns the molecule itself. Described as above.
For data set [3], the target named is T1, Full-length (FL) Nucleophosmin 1 (human, UniProt P06748 1-294).
T1 construct: Forms pentamers that assemble into large oligomers without defined stoichiometry; PDB 8AS5 models only the N-terminal core; also called NPM1; FL NPM1; source: produced by the authors
The data set is described as follows: native MS; NPM1_120 or FL NPM1 in the presence of the rpL5_21-37 peptide; collisional activation. The note with it: both partners purified.

Data set [4] has as its target B4. The data set is described as above. The note with it: both partners purified.
Data set [5] concerns the molecule itself. The data set is described as above.

Where “and” joins values, the source holds several entries; their conditions need not be identical. Equal entries are not always repeated.

As usually defined, the stoichiometry N is the number of molecules, sites or subunits per partner or assembly. On to “NPM1_(ΔIDR), NPM1 variant in which NTD and CTD are linked without the IDR (from UniProt P06748 1-120; P06748 240-294)”, for which the stoichiometry N in data set [1] was 5 and 10.

Turning to B1, the “stoichiometry N” value in data set [2] was 5 and 10.

With B2, the binding result in data set [3] and in data set [4] was “binds” in each case. In the case of B3, the binding result in data set [2] is recorded as “binds”. With B4, the results for the “stoichiometry N” value in data set [5] and in data set [2] were at least 25 subunits and 10, respectively.

(Values after publication PMC9896144, “A “grappling hook” interaction connects self-assembly and chaperone activity of Nucleophosmin 1” (PNAS Nexus, 2023).)
